Assay [1] concerns the target T1, rat serum albumin (Rat, UniProt P02770 25-608). Put plainly: labeled peptide, KD; PBS, pH 7.4, 0.14 M NaCl.
Assay [2] has as its target T2, human serum albumin (human, UniProt P02768 25-609).
T2 construct: also called HSA
As to the kind of experiment: labeled peptide, KD; PBS, pH 7.4, 0.14 M NaCl.

In assay [3] the target is T3, Rhesus serum albumin (Rhesus, UniProt Q28522 17-600). Put plainly: labeled peptide, KD; PBS, pH 7.4, 0.14 M NaCl.
Assay [4] has as its target T4, goat serum albumin (Goat).
T4 construct: also called GSA
T4 sequence (P85295 whole entry, looked up): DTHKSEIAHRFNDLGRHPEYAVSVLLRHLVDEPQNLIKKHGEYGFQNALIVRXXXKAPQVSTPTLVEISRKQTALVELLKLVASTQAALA
Put plainly: labeled peptide, KD; PBS, pH 7.4, 0.14 M NaCl.

Assay [5] deals with T1, rat serum albumin. As to the kind of experiment: labeled peptide, KD; 3 mM phosphate, pH 6.2, 0 M NaCl.
Assay [6] addresses T2, human serum albumin. The assay is described as above.
The target of assay [7] is T3, Rhesus serum albumin. The assay is described as above.
The target of assay [8] is T4, goat serum albumin. The description is as above.
A further assay deals with T5, bovine serum albumin (Bovine, UniProt P02769 25-607).
T5 construct: also called BSA
T5 sequence (P02769 25-607 limits assumed): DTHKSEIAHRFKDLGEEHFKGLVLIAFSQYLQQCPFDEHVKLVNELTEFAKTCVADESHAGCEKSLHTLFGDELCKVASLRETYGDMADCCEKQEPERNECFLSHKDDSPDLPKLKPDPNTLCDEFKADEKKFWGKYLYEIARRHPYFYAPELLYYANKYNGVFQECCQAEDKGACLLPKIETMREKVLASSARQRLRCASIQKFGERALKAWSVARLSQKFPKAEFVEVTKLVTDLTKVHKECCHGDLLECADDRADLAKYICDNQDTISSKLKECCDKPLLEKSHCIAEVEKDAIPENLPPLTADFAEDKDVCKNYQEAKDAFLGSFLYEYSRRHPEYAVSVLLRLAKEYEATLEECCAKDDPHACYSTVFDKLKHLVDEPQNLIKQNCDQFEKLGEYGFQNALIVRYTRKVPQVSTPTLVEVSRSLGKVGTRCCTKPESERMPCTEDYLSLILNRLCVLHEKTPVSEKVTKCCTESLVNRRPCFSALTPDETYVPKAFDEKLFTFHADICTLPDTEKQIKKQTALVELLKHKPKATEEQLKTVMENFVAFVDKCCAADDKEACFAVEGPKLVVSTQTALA
As to the kind of experiment: labeled peptide, KD; 3 mM phosphate, pH 6.2, 0 M NaCl; labeled peptide in solution; 3 mM phosphate, pH 6.2, 0 M NaCl.

Assay [9] deals with T6, pig serum albumin (Pig, UniProt P08835 25-607). Described as above.
T6 sequence (P08835 25-607 limits assumed): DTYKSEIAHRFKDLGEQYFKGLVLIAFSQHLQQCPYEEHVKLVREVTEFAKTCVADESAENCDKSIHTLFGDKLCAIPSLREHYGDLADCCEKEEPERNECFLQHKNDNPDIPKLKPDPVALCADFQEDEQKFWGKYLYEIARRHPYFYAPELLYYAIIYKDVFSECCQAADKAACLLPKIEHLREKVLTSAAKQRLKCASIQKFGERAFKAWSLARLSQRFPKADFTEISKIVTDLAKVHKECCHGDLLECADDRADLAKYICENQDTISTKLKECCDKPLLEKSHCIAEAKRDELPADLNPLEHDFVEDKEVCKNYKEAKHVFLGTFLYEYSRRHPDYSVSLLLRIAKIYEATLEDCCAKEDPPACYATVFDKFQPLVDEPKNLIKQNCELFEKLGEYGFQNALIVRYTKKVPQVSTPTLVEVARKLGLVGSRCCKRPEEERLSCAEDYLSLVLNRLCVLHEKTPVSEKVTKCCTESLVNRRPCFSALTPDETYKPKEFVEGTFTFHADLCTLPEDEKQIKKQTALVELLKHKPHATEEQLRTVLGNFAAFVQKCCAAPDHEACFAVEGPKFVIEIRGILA
The target of assay [10] is T7, human plasma IgG3 (human, UniProt P01860-1 1-377).
T7 construct: Plasma-derived IgG isoform, bought
T7 sequence (P01860 other isoform, or with tags, fused parts or gaps): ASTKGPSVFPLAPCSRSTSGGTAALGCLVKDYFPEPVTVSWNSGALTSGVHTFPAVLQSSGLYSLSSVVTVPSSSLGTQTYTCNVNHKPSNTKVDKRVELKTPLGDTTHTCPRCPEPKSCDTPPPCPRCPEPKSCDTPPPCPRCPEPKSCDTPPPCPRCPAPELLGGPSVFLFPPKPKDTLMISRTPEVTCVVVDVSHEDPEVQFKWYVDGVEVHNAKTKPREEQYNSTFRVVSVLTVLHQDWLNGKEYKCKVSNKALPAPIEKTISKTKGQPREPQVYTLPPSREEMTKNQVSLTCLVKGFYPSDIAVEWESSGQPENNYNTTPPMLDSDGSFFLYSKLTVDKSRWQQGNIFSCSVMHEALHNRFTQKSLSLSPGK
As to the kind of experiment: Oregon Green peptide, pH 4.0 - salt. As to the method: (§1) Binding studies were performed using human plasma IgG isoforms: IgG1, IgG2, IgG3, and IgG4, obtained from Calbiochem.
(§2) Binding studies were carried out at either pH 4.0, 7.5, or 9.5, with or without salt in the following buffers: […]

The target of assay [11] is T8, human plasma IgG4 (human, UniProt P01861-1 1-327 = IgG part).
T8 construct: Plasma-derived IgG isoform, bought
T8 sequence (P01861 other isoform, or with tags, fused parts or gaps): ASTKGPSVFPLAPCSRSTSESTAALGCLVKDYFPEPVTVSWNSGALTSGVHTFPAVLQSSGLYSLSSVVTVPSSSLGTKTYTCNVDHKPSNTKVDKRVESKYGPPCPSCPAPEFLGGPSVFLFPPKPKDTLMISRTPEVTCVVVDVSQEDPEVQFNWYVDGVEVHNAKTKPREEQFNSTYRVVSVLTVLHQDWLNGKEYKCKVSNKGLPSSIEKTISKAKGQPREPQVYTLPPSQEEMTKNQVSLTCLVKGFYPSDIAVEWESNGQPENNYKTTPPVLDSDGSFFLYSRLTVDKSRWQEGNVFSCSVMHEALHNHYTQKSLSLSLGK
Put plainly: Oregon Green peptide, pH 7.5 - salt. As to the method: as §1, §2

The target of assay [12] is T6, pig serum albumin. Put plainly: labeled peptide, KD; 3 mM phosphate, pH 6.2, 0 M NaCl.
The target in a further assay is rabbit serum albumin (Rabbit, UniProt P49065 25-608). The description is as above.
rabbit serum albumin, sequence (P49065 25-608 limits assumed): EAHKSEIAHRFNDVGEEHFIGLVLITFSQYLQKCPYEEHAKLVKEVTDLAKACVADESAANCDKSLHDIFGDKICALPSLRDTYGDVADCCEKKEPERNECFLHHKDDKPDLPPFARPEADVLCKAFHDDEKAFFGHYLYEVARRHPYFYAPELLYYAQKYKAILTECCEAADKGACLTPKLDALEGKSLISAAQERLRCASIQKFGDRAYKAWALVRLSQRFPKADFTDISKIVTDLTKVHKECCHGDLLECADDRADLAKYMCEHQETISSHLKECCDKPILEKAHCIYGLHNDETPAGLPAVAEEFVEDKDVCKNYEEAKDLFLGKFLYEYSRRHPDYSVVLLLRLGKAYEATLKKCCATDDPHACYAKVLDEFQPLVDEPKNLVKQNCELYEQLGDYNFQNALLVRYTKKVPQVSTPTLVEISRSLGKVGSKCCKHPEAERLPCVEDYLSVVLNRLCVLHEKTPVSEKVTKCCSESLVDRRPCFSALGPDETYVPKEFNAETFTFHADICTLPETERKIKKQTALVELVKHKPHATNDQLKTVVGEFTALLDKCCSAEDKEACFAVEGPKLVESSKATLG
Assay [13] has as its target T7, human plasma IgG3. Put plainly: Oregon Green peptide, pH 4.0 + salt (500 mM NaCl). As to the method:
as §1, §2

For assay [14], the target named is T7, human plasma IgG3. As to the kind of experiment: Oregon Green peptide, pH 7.5 + salt (500 mM NaCl). As to the method: as §1, §2
The target in assay [15] is T9, human plasma IgG2 (human, UniProt P01859-1 1-326 = IgG part).
T9 construct: Plasma-derived IgG isoform, bought
T9 sequence (P01859 other isoform, or with tags, fused parts or gaps): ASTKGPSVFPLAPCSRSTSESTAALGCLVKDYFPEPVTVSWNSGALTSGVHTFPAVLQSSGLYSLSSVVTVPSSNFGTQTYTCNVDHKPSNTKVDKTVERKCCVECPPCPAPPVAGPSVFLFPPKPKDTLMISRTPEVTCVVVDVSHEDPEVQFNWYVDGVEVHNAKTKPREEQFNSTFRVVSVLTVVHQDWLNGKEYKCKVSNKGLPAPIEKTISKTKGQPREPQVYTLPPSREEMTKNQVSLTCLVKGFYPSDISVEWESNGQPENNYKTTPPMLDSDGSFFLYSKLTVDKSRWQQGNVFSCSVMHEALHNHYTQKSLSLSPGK
As to the kind of experiment: Oregon Green peptide, pH 7.5 + salt (500 mM NaCl); pH 7.5 + salt. As to the method: as §1, §2

Assay [16] addresses T7, human plasma IgG3. As to the kind of experiment: Oregon Green peptide, TBS pH 7.5. As to the method: as §1, §2
In assay [17] the target is T10, human plasma IgG1 (human, UniProt P01857-1 1-330 = IgG part).
T10 construct: Plasma-derived IgG isoform, bought
T10 sequence (P01857 other isoform, or with tags, fused parts or gaps): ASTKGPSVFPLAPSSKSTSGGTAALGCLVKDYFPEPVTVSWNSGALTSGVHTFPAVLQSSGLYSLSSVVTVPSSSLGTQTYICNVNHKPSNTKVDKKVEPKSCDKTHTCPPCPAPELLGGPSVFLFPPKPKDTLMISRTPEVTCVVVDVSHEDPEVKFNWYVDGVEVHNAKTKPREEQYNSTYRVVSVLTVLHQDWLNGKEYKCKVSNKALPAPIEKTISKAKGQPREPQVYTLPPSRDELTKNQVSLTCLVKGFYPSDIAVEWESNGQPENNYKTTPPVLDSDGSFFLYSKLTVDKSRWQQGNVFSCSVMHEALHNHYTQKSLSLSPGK
Put plainly: Oregon Green peptide, pH 4.0 - salt. As to the method: as §1, §2

The target of assay [18] is T8, human plasma IgG4. Put plainly: Oregon Green peptide, pH 4.0 - salt. As to the method:
as §1, §2

Assay [19] deals with T10, human plasma IgG1. Put plainly: Oregon Green peptide, pH 7.5 - salt. As to the method: as §1, §2
In assay [20] the target is T9, human plasma IgG2. As to the kind of experiment: Oregon Green peptide, pH 9.5 - salt. As to the method: as §1, §2
In assay [21] the target is T7, human plasma IgG3. As to the kind of experiment: Oregon Green peptide, pH 9.5 - salt. As to the method: as §1, §2
The target in assay [22] is T7, human plasma IgG3. Put plainly: Oregon Green peptide, pH 9.5 + salt (500 mM NaCl). As to the method: as §1, §2
In assay [23] the target is T9, human plasma IgG2. As to the kind of experiment: Oregon Green peptide, pH 4.0 - salt. As to the method: as §1, §2
In assay [24] the target is T9, human plasma IgG2. Put plainly: Oregon Green peptide, pH 7.5 - salt. As to the method: as §1, §2
Assay [25] concerns the target T10, human plasma IgG1. As to the kind of experiment: Oregon Green peptide, pH 4.0 + salt (500 mM NaCl). As to the method:
as §1, §2

The target of assay [26] is T9, human plasma IgG2. Put plainly: Oregon Green peptide, pH 4.0 + salt (500 mM NaCl). As to the method: as §1, §2

The Kd is a measure of binding affinity in units of concentration.

Positions of bridges follow the written chain, without caps; N, C: chain ends. No end group written: not given here. A value given as a limit tells only on which side of the number the result lay.

T2 sequence (P02768 25-609): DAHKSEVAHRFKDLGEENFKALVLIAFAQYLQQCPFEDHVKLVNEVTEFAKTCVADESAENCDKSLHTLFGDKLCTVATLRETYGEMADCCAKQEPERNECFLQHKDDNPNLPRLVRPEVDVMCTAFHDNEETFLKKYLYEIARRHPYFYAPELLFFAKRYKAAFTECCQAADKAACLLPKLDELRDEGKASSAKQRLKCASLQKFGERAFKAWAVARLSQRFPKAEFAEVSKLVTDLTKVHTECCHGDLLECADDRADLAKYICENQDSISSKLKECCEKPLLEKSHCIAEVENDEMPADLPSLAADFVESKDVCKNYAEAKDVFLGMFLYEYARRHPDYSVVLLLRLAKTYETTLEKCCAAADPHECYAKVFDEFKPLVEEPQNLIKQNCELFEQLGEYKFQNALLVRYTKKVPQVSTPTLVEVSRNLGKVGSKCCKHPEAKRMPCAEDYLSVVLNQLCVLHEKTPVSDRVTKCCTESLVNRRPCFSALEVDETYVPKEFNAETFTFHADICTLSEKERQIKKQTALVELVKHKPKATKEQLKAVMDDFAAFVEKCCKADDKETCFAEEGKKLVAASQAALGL
T3 sequence (Q28522 17-600 limits assumed): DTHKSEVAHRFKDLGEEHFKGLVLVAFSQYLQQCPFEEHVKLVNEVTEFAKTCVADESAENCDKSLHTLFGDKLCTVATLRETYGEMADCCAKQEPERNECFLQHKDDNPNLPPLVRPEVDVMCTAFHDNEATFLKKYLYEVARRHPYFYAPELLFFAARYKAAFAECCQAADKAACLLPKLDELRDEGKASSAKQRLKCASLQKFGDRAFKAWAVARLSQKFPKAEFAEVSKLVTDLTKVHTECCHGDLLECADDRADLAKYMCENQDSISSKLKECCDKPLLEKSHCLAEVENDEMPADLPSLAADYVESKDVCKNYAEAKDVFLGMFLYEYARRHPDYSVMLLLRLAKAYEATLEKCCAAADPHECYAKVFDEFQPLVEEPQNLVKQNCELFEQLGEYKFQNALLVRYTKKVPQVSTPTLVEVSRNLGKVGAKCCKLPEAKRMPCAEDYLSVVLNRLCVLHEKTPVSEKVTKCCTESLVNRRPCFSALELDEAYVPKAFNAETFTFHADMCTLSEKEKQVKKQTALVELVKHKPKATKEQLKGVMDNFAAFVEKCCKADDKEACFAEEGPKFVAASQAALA
T1 sequence (P02770 25-608 limits assumed): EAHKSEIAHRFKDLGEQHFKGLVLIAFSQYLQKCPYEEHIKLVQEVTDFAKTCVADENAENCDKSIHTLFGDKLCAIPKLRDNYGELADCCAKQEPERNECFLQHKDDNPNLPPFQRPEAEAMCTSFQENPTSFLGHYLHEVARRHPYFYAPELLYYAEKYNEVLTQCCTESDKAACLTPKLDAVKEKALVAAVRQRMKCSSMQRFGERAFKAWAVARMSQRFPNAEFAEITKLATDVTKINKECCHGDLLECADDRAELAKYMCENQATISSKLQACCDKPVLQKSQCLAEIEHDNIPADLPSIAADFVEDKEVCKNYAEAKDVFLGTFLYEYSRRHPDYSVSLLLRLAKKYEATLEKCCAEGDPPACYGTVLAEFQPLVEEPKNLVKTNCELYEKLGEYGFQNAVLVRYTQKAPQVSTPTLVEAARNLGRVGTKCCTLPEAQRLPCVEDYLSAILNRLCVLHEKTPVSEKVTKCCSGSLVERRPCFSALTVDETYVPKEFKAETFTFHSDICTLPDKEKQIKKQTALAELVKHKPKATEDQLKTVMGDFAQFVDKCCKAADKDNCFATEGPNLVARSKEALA

B1: DX-321 (peptide)
peptide: AEGTGDRNMCKFSWIRSPAFCARADPE
modifications: not fully specified (bridges); cysteine pairing not given here; also: label not named, exact tested form not given here, immobilised via C-terminal lysine to Sepharose
In the case of B1, the Kd is 117000 nM in the assay with rat serum albumin [1]; 84000 nM with human serum albumin [2]; 82000 nM with Rhesus serum albumin [3]; 83000 nM with goat serum albumin [4]; 23000 nM with rat serum albumin [5]; 900 nM with human serum albumin [6]. Moreover, the Kd in the assay with Rhesus serum albumin [7] was found to be 38000 nM; with goat serum albumin [8], 95000 nM; in the assay with bovine serum albumin, 21000 nM; with pig serum albumin [9] it was 21000 nM.

B2: DX395 (peptide)
peptide: AGKYWCNLWGVCPANPGPEGGGK
modifications: N-terminal acetyl (Ac-); C-terminal amide (-NH2); Oregon Green labeled
notes: Synthesised by BACHEM, Oregon Green labeled, HPLC purified
For B2, the Kd with human plasma IgG3 [10] is 1000 nM; in the assay with human plasma IgG4 [11], more than 10000 nM.

B3: DX-236 (peptide)
peptide: AEGTGDFWFCDRIAWYPQHLCEFLDPEGGGK
modifications: disulfide 10-21 (inferred); not fully specified; also: labeled, label not named, coupled via C-terminal lysine to NHS-Sepharose
notes: Cyclic (disulfide) phage-display peptide
For B3, the Kd turned out to be 23000 nM in the assay with goat serum albumin [4], 1600 nM in the assay with goat serum albumin [8], 500 nM with pig serum albumin [12] and 500 nM in the assay with rabbit serum albumin.

B4: DX389 (peptide)
peptide: AGPHNCDDHYWYCKWFPGPEGGGK
modifications: N-terminal acetyl (Ac-); C-terminal amide (-NH2); Oregon Green labeled
notes: as for B2
Consider B4, for which the Kd with human plasma IgG3 [10] was 2500 nM; with human plasma IgG3 [13], 1800 nM; with human plasma IgG3 [14], more than 10000 nM; with human plasma IgG2 [15] it was more than 10000 nM.

B5: DX398 (peptide)
peptide: Ac-AGAATCSTSYWYYQWFCTDSPGPEGGGK-NH2
modifications: cysteine pairing not given here; also: Oregon Green labeled, place not given here
notes: as for B2
B5: the Kd in the assay with human plasma IgG3 [16] was more than 10000 nM; with human plasma IgG1 [17], 2400 nM; with human plasma IgG3 [10], 20 nM; with human plasma IgG4 [18], 1600 nM; in the assay with human plasma IgG1 [19], 4600 nM; with human plasma IgG4 [11], 3500 nM. The Kd was more than 10000 nM in the assay with human plasma IgG2 [20]; more than 10000 nM in the assay with human plasma IgG3 [21]; 40 nM with human plasma IgG3 [13]; 300 nM with human plasma IgG3 [14]; 300 nM in the assay with human plasma IgG3 [22].

B6: DX392 (peptide)
peptide: AGSYWCKIWDVCPQSPGPEGGGK
modifications: N-terminal acetyl (Ac-); C-terminal amide (-NH2); Oregon Green labeled
notes: as for B2
As for B6, the Kd with human plasma IgG3 [10] was 320 nM; with human plasma IgG3 [13], 600 nM; with human plasma IgG3 [14], more than 10000 nM; with human plasma IgG3 [22] it was more than 10000 nM.

B7: DX413 (peptide)
peptide: AGYWYCWFPDRPECPLYPGPEGGGK
modifications: N-terminal acetyl (Ac-); C-terminal amide (-NH2); Oregon Green labeled
notes: as for B2
With B7, the values for the Kd in the assay with human plasma IgG3 [10] and with human plasma IgG3 [13] were 840 nM and 1100 nM, respectively.

B8: DX404 (peptide)
peptide: AGTYWCTFWELPCDPAPGPEGGGK
modifications: N-terminal acetyl (Ac-); C-terminal amide (-NH2); Oregon Green labeled
notes: as for B2
Turning to B8, the Kd came out at 1500 nM in the assay with human plasma IgG1 [17]; 1000 nM with human plasma IgG2 [23]; 10 nM with human plasma IgG3 [10]; 8800 nM with human plasma IgG1 [19]; 8600 nM with human plasma IgG2 [24]; 2000 nM with human plasma IgG1 [25]. Besides, the Kd with human plasma IgG2 [26] came to 2000 nM; with human plasma IgG3 [13], 200 nM.
